{
  "source": "IntAct's records for PubMed 24793649",
  "parents": {"B1": {"name": "CRISPR-associated endonuclease Cas1 (Escherichia coli (strain K12)), Q46896 (parent)", "chain": "MTWLPLNPIPLKDRVSMIFLQYGQIDVIDGAFVLIDKTGIRTHIPVGSVACIMLEPGTRVSHAAVRLAAQVGTLLVWVGEAGVRVYASGQPGGARSDKLLYQAKLALDEDLRLKVVRKMFELRFGEPAPARRSVEQLRGIEGSRVRATYALLAKQYGVTWNGRRYDPKDWEKGDTINQCISAATSCLYGVTEAAILAAGYAPAIGFVHTGKPLSFVYDIADIIKFDTVVPKAFEIARRNPGEPDREVRLACRDIFRSSKTLAKLIPLIEDVLAAGEIQPPAPPEDAQPVAIPLPVSLGDAGHRSS", "partner": "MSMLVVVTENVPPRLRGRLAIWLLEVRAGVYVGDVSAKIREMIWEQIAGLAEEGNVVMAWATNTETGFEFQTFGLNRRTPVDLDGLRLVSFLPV"}},
  "data": [
    {"variants_of": "B1", "conditions": "with cas2_ecoli ygbF", "values": [
      {"variant": "MTWLPLNPIPLKDRVSMIFLQYGQIDVIDGAFVLIDKTGIRTHIPVGSVACIMLEPGTRVSHAAVRLAAQVGTLLVWVGEAGVRVYASGQPGGARSDKLLYQAKLALDEDLRLKVVRKMFELRFGEPAPARRSVEQLRGIEGSRVRATYALLAKQYGVTWNGRRYDPKDWEKGDTINQCISAATSCLYGVTEAAILAAGYAPAIGFVHTGKPLSFVYDIADIIKFDTVVPKAFEIARRNPGEPDREVRLACEDIFRSSKTLAKLIPLIEDVLAAGEIQPPAPPEDAQPVAIPLPVSLGDAGHRSS", "note": "[R252E]", "effect of a mutation on the interaction": "disrupting interaction strength"}
    ]}
  ]
}
